According to article PMC10966353:

Biological target: A/Singapore/INFIMH-16-0019/2016 hemagglutinin with a C-terminal sfGFP, GCN4 trimerization domain and Strep-tag (influenza A virus A/Singapore/INFIMH-16-0019/2016)
Experiment: negative stain electron microscopy

“A/Singapore/INFIMH-16-0019/2016 hemagglutinin with a C-terminal sfGFP, GCN4 trimerization domain and Strep-tag” was tested, and the stoichiometry N was 3.
